# According to US20130005646A1 (Novo Nordisk, published 2013):
# Starred links: 1 amine or outer side, 2 acyl side, 3 side chain; linkers in the order of their positions; H or OH if unused. Positions of bridges follow the written chain, without caps; N, C: chain ends. *: point of attachment. C20 diacid = O=C(O)CCCCCCCCCCCCCCCCCCC(=O)*; γGlu = O=C(O)[C@H](CCC(=O)[*:2])N[*:1]
# T1: rat amylin 3(a) receptor (rat calcitonin(a) receptor + rat RAMP3) (rat, UniProt P32214 25-516; Q9JJ73 23-147)
# T1 sequence (looked up) 1: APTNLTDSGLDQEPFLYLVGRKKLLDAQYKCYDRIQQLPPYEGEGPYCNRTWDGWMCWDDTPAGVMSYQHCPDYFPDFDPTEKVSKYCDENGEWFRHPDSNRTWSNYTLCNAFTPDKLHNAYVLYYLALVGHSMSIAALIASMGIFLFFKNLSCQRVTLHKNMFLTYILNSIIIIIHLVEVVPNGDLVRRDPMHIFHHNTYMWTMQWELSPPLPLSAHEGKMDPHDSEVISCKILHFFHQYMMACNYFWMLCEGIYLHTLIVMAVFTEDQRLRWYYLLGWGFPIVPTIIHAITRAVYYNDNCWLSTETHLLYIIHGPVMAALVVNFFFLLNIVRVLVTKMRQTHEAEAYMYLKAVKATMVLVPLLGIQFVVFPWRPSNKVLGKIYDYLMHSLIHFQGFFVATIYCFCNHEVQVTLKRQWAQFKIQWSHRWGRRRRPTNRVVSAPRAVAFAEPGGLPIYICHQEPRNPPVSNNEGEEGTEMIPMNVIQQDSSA
# T1 sequence (looked up) 2: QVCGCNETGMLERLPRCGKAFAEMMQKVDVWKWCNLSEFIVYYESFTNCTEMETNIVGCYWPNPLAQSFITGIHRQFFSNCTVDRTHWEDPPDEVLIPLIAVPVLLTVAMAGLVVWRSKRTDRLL
# T2: human amylin 3(a) receptor (human calcitonin receptor + RAMP-3) (human, UniProt P30988 25-474; O60896 24-148)
# T2 sequence (looked up) 1: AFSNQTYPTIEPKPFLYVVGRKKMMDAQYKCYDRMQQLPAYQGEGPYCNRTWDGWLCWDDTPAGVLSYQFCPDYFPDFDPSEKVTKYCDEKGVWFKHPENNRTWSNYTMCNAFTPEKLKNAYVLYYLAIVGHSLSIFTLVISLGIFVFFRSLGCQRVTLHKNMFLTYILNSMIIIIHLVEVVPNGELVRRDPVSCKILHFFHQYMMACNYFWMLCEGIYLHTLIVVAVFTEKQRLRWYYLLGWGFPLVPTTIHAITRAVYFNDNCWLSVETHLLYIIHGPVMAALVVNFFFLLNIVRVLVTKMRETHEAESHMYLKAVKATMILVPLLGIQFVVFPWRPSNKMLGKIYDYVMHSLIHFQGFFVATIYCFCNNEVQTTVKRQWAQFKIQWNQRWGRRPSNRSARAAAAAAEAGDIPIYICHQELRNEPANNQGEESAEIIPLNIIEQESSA
# T2 sequence (looked up) 2: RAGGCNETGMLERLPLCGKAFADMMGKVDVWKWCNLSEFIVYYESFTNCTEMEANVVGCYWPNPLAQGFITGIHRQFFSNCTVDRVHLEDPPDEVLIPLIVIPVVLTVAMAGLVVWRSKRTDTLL
# T3: human calcitonin (a) receptor (human, UniProt P30988 25-474)
# T3 sequence (looked up): T2 sequence (looked up) 1
# T4: rat calcitonin (a) receptor (rat, UniProt P32214 25-516)
# T4 sequence (looked up): T1 sequence (looked up) 1
# B1: N-alpha-[(S)-4-Carboxy-4-(19-carboxynonadecanoylamino)butyryl]-His-His-[His1,Glu14,Arg17]-pramlintide (peptide)
# peptide: {C20 diacid-γGlu}-HHHCNTATCATQRLAEFLRHSSNNFGPILPPTNVGSNTY-NH2
# modifications: disulfide 4-9
# SMILES: CC[C@H](C)[C@H](NC(=O)[C@@H]1CCCN1C(=O)CNC(=O)[C@H](Cc1ccccc1)NC(=O)[C@H](CC(N)=O)NC(=O)[C@H](CC(N)=O)NC(=O)[C@H](CO)NC(=O)[C@H](CO)NC(=O)[C@H](Cc1c[nH]cn1)NC(=O)[C@H](CCCNC(=N)N)NC(=O)[C@H](CC(C)C)NC(=O)[C@H](Cc1ccccc1)NC(=O)[C@H](CCC(=O)O)NC(=O)[C@H](C)NC(=O)[C@H](CC(C)C)NC(=O)[C@H](CCCNC(=N)N)NC(=O)[C@H](CCC(N)=O)NC(=O)[C@@H](NC(=O)[C@H](C)NC(=O)[C@@H]1CSSC[C@H](NC(=O)[C@H](Cc2c[nH]cn2)NC(=O)[C@H](Cc2c[nH]cn2)NC(=O)[C@H](Cc2c[nH]cn2)NC(=O)CC[C@H](NC(=O)CCCCCCCCCCCCCCCCCCC(=O)O)C(=O)O)C(=O)N[C@@H](CC(N)=O)C(=O)N[C@@H]([C@@H](C)O)C(=O)N[C@@H](C)C(=O)N[C@@H]([C@@H](C)O)C(=O)N1)[C@@H](C)O)C(=O)N[C@@H](CC(C)C)C(=O)N1CCC[C@H]1C(=O)N1CCC[C@H]1C(=O)N[C@H](C(=O)N[C@@H](CC(N)=O)C(=O)N[C@H](C(=O)NCC(=O)N[C@@H](CO)C(=O)N[C@@H](CC(N)=O)C(=O)N[C@H](C(=O)N[C@@H](Cc1ccc(O)cc1)C(N)=O)[C@@H](C)O)C(C)C)[C@@H](C)O
# B2: N-alpha-[(S)-4-Carboxy-4-(19-carboxynonadecanoylamino)butyryl]-[His1,Glu14,His17]-pramlintide (peptide)
# peptide: {C20 diacid-γGlu}-HCNTATCATQRLAEFLHHSSNNFGPILPPTNVGSNTY-NH2
# modifications: disulfide 2-7; not fully specified; printed as N-alpha-[(S)-4-Carboxy-4-(19-carboxynonadecanoylamino)butyryl]-[His1,Glu14,His17]-pramlintide
# B3: N-alpha-[(S)-4-Carboxy-4-(19-carboxynonadecanoylamino)butyryl]-[Glu1,Glu14,His17,Arg18,Pro37]-pramlintide (peptide)
# peptide: {C20 diacid-γGlu}-ECNTATCATQRLAEFLHRSSNNFGPILPPTNVGSNTP-NH2
# modifications: disulfide 2-7
# SMILES: CC[C@H](C)[C@H](NC(=O)[C@@H]1CCCN1C(=O)CNC(=O)[C@H](Cc1ccccc1)NC(=O)[C@H](CC(N)=O)NC(=O)[C@H](CC(N)=O)NC(=O)[C@H](CO)NC(=O)[C@H](CO)NC(=O)[C@H](CCCNC(=N)N)NC(=O)[C@H](Cc1c[nH]cn1)NC(=O)[C@H](CC(C)C)NC(=O)[C@H](Cc1ccccc1)NC(=O)[C@H](CCC(=O)O)NC(=O)[C@H](C)NC(=O)[C@H](CC(C)C)NC(=O)[C@H](CCCNC(=N)N)NC(=O)[C@H](CCC(N)=O)NC(=O)[C@@H](NC(=O)[C@H](C)NC(=O)[C@@H]1CSSC[C@H](NC(=O)[C@H](CCC(=O)O)NC(=O)CC[C@H](NC(=O)CCCCCCCCCCCCCCCCCCC(=O)O)C(=O)O)C(=O)N[C@@H](CC(N)=O)C(=O)N[C@@H]([C@@H](C)O)C(=O)N[C@@H](C)C(=O)N[C@@H]([C@@H](C)O)C(=O)N1)[C@@H](C)O)C(=O)N[C@@H](CC(C)C)C(=O)N1CCC[C@H]1C(=O)N1CCC[C@H]1C(=O)N[C@H](C(=O)N[C@@H](CC(N)=O)C(=O)N[C@H](C(=O)NCC(=O)N[C@@H](CO)C(=O)N[C@@H](CC(N)=O)C(=O)N[C@H](C(=O)N1CCC[C@H]1C(N)=O)[C@@H](C)O)C(C)C)[C@@H](C)O
# B4: N-alpha-[(S)-4-Carboxy-4-(19-carboxynonadecanoylamino)butyryl]-His-[His1,Glu14,His17]-pramlintide (peptide)
# peptide: {C20 diacid-γGlu}-HHCNTATCATQRLAEFLHHSSNNFGPILPPTNVGSNTY-NH2
# modifications: disulfide 3-8
# SMILES: CC[C@H](C)[C@H](NC(=O)[C@@H]1CCCN1C(=O)CNC(=O)[C@H](Cc1ccccc1)NC(=O)[C@H](CC(N)=O)NC(=O)[C@H](CC(N)=O)NC(=O)[C@H](CO)NC(=O)[C@H](CO)NC(=O)[C@H](Cc1c[nH]cn1)NC(=O)[C@H](Cc1c[nH]cn1)NC(=O)[C@H](CC(C)C)NC(=O)[C@H](Cc1ccccc1)NC(=O)[C@H](CCC(=O)O)NC(=O)[C@H](C)NC(=O)[C@H](CC(C)C)NC(=O)[C@H](CCCNC(=N)N)NC(=O)[C@H](CCC(N)=O)NC(=O)[C@@H](NC(=O)[C@H](C)NC(=O)[C@@H]1CSSC[C@H](NC(=O)[C@H](Cc2c[nH]cn2)NC(=O)[C@H](Cc2c[nH]cn2)NC(=O)CC[C@H](NC(=O)CCCCCCCCCCCCCCCCCCC(=O)O)C(=O)O)C(=O)N[C@@H](CC(N)=O)C(=O)N[C@@H]([C@@H](C)O)C(=O)N[C@@H](C)C(=O)N[C@@H]([C@@H](C)O)C(=O)N1)[C@@H](C)O)C(=O)N[C@@H](CC(C)C)C(=O)N1CCC[C@H]1C(=O)N1CCC[C@H]1C(=O)N[C@H](C(=O)N[C@@H](CC(N)=O)C(=O)N[C@H](C(=O)NCC(=O)N[C@@H](CO)C(=O)N[C@@H](CC(N)=O)C(=O)N[C@H](C(=O)N[C@@H](Cc1ccc(O)cc1)C(N)=O)[C@@H](C)O)C(C)C)[C@@H](C)O
# B5: N-alpha-[(S)-4-Carboxy-4-(19-carboxynonadecanoylamino)butyryl]-His-His-[His1,Glu14,His17]-pramlintide (peptide)
# peptide: {C20 diacid-γGlu}-HHHCNTATCATQRLAEFLHHSSNNFGPILPPTNVGSNTY-NH2
# modifications: disulfide 4-9
# SMILES: CC[C@H](C)[C@H](NC(=O)[C@@H]1CCCN1C(=O)CNC(=O)[C@H](Cc1ccccc1)NC(=O)[C@H](CC(N)=O)NC(=O)[C@H](CC(N)=O)NC(=O)[C@H](CO)NC(=O)[C@H](CO)NC(=O)[C@H](Cc1c[nH]cn1)NC(=O)[C@H](Cc1c[nH]cn1)NC(=O)[C@H](CC(C)C)NC(=O)[C@H](Cc1ccccc1)NC(=O)[C@H](CCC(=O)O)NC(=O)[C@H](C)NC(=O)[C@H](CC(C)C)NC(=O)[C@H](CCCNC(=N)N)NC(=O)[C@H](CCC(N)=O)NC(=O)[C@@H](NC(=O)[C@H](C)NC(=O)[C@@H]1CSSC[C@H](NC(=O)[C@H](Cc2c[nH]cn2)NC(=O)[C@H](Cc2c[nH]cn2)NC(=O)[C@H](Cc2c[nH]cn2)NC(=O)CC[C@H](NC(=O)CCCCCCCCCCCCCCCCCCC(=O)O)C(=O)O)C(=O)N[C@@H](CC(N)=O)C(=O)N[C@@H]([C@@H](C)O)C(=O)N[C@@H](C)C(=O)N[C@@H]([C@@H](C)O)C(=O)N1)[C@@H](C)O)C(=O)N[C@@H](CC(C)C)C(=O)N1CCC[C@H]1C(=O)N1CCC[C@H]1C(=O)N[C@H](C(=O)N[C@@H](CC(N)=O)C(=O)N[C@H](C(=O)NCC(=O)N[C@@H](CO)C(=O)N[C@@H](CC(N)=O)C(=O)N[C@H](C(=O)N[C@@H](Cc1ccc(O)cc1)C(N)=O)[C@@H](C)O)C(C)C)[C@@H](C)O
# Target: T1, rat amylin 3(a) receptor (rat …)
# Assay: cell-based or functional assay
row,Binder,Amylin receptor rat EC50 [pM]
1,B1,82
2,B2,187
3,B3,374
4,B4,147
5,B5,88.5

# Target: T2, human amylin 3(a) receptor (human …)
# Assay: cell-based or functional assay
row,Binder,Amylin receptor human EC50 [pM]
1,B1,77.5
2,B2,131
3,B3,82.3
4,B4,111
5,B5,85.3

# Target: T3, human calcitonin (a) receptor
# Assay: cell-based or functional assay
row,Binder,CTa receptor human EC50 [pM]
1,B1,408
2,B2,126
3,B3,86.4
4,B4,166
5,B5,208

# Target: T4, rat calcitonin (a) receptor
# Assay: cell-based or functional assay
row,Binder,CTa receptor rat EC50 [pM]
1,B1,6760
2,B2,1160
3,B3,806
4,B4,221
5,B5,962
